In publication PMC9482650, “Quantitative fragmentomics allow affinity mapping of interactomes” (Nature Communications, 2022):

Legend:
Experiment in all cases: holdup assay
Set-up in all cases: key: below the threshold = too weak to quantify, mostly under pKd 3.1 to 4
ARHGEF11, O15085 = biological target: T1, ARHGEF11, O15085
T1 sequence (O15085 42-136, limits assumed, looked up): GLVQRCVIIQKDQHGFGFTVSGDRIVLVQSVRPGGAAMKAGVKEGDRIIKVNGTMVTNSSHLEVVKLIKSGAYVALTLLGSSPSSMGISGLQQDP

CASK, O14936 = biological target: CASK, O14936
DFNB31_1, Q9P202 = biological target: T2, DFNB31_1, Q9P202
T2 sequence (Q9P202 135-233, limits assumed, looked up): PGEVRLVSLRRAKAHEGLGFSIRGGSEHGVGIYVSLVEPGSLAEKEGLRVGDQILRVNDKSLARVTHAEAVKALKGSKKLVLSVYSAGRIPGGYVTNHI

DFNB31_2, Q9P202 = biological target: T3, DFNB31_2, Q9P202
T3 sequence (Q9P202 274-371, limits assumed, looked up): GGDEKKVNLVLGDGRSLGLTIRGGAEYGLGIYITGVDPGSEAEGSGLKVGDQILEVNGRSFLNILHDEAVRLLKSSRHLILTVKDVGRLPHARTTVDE

DLG1_2, Q12959 = biological target: DLG1_2, Q12959
DLG5_1, Q8TDM6 = biological target: DLG5_1, Q8TDM6
FRMPD2_1, Q68DX3 = biological target: FRMPD2_1, Q68DX3
FRMPD3, Q5JV73 = biological target: FRMPD3, Q5JV73
GIPC2, Q8TF65 = biological target: GIPC2, Q8TF65
GRIP1_3, Q9Y3R0 = biological target: T4, GRIP1_3, Q9Y3R0
T4 sequence (Q9Y3R0 247-346, limits assumed, looked up): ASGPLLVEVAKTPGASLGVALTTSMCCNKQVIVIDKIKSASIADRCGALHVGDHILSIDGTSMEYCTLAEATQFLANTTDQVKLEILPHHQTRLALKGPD

GRIP2_7, Q9C0E4 = biological target: GRIP2_7, Q9C0E4
Inadl_5, Q8NI35 = biological target: Inadl_5, Q8NI35
LIN7C, Q9NUP9 = biological target: T5, LIN7C, Q9NUP9
T5 sequence (Q9NUP9 88-185, limits assumed, looked up): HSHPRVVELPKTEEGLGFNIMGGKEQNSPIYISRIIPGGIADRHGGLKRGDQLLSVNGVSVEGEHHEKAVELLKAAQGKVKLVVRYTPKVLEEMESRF

LNX2_3, Q8N448 = biological target: T6, LNX2_3, Q8N448
T6 sequence (Q8N448 463-564, limits assumed, looked up): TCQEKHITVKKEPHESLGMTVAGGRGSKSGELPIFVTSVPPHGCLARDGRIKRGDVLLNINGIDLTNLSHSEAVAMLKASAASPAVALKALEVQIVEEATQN

MAGI1_2, Q96QZ7 = biological target: MAGI1_2, Q96QZ7
MAGI2_2, Q86UL8 = biological target: MAGI2_2, Q86UL8
MAGI2_4, Q86UL8 = biological target: MAGI2_4, Q86UL8
MAST1, Q9Y2H9 = biological target: MAST1, Q9Y2H9
MPP2, Q14168 = biological target: T7, MPP2, Q14168
T7 sequence (Q14168 180-250, limits assumed, looked up): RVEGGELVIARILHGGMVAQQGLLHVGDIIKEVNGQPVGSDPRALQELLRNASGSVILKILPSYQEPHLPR

PARD3B_1, Q8TEW8 = biological target: T8, PARD3B_1, Q8TEW8
T8 sequence (Q8TEW8 196-299, limits assumed, looked up): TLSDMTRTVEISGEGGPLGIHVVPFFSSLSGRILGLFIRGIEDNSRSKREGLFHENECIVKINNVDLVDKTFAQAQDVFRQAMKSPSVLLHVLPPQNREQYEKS

RADIL, Q96JH8 = biological target: T9, RADIL, Q96JH8
T9 sequence (Q96JH8 971-1071, limits assumed, looked up): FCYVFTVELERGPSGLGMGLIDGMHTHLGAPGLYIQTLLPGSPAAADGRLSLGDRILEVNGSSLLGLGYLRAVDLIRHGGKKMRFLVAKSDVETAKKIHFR

SIPA1L2, Q9P2F8 = biological target: T10, SIPA1L2, Q9P2F8
T10 sequence (Q9P2F8 945-1036, limits assumed, looked up): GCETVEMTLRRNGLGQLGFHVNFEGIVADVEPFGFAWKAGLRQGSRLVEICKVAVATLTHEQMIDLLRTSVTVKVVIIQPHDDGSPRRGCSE

SNTG2, Q9NY99 = biological target: T11, SNTG2, Q9NY99
T11 sequence (Q9NY99 68-166, limits assumed, looked up): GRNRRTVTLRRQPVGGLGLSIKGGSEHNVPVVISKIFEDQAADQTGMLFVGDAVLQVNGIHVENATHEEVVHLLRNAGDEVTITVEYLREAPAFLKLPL

TJP1_2, Q07157 = biological target: TJP1_2, Q07157
TJP2_1, Q9UDY2 = biological target: TJP2_1, Q9UDY2
TJP3_3, O95049 = biological target: T12, TJP3_3, O95049
T12 sequence (O95049 375-456, limits assumed, looked up): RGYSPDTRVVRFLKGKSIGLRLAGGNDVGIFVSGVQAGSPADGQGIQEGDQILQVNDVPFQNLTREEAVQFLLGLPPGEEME

[1] = plain residues with an end cap or a label only (N-terminal biotin on a linker: ado-ado)
[2] = plain residues with an end cap or a label only (N-terminal biotin on a linker: (peg)3)

MAST1, Q9Y2H9, sequence (Q9Y2H9 962-1065): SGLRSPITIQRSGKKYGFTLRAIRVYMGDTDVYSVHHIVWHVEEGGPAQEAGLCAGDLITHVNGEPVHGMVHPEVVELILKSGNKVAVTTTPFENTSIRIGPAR
FRMPD3, Q5JV73, sequence (Q5JV73 12-100): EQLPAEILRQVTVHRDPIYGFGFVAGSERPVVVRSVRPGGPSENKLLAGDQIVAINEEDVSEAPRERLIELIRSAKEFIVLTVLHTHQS
MAGI1_2, Q96QZ7, sequence (Q96QZ7 456-580): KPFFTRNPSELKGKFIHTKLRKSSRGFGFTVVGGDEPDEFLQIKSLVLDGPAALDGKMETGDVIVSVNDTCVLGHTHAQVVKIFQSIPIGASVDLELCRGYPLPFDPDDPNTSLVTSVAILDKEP
DLG1_2, Q12959, sequence (Q12959 314-412): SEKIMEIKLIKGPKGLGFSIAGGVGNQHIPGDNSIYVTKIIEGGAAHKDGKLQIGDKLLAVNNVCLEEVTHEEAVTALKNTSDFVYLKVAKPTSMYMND
MAGI2_4, Q86UL8, sequence (Q86UL8 772-865): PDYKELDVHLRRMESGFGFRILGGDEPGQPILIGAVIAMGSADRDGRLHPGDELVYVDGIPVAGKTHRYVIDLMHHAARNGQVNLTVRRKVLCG
MAGI2_2, Q86UL8, sequence (Q86UL8 410-522): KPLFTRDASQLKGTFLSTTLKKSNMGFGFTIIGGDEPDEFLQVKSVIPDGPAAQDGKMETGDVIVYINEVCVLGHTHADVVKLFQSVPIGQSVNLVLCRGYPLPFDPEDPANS
Inadl_5, Q8NI35, sequence (Q8NI35 673-780): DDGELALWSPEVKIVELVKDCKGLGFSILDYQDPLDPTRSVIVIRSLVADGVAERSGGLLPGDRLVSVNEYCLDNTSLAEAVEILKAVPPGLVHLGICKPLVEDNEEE
TJP2_1, Q9UDY2, sequence (Q9UDY2 24-128): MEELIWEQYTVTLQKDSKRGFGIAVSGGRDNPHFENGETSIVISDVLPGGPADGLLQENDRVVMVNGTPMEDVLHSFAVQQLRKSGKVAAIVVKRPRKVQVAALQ
GRIP2_7, Q9C0E4, sequence (Q9C0E4 934-1023): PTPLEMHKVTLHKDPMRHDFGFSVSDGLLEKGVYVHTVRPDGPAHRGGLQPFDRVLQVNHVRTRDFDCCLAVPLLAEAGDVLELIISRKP
CASK, O14936, sequence (O14936 487-570): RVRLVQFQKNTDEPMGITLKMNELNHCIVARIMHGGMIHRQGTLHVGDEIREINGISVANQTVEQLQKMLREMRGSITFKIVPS
FRMPD2_1, Q68DX3, sequence (Q68DX3 770-861): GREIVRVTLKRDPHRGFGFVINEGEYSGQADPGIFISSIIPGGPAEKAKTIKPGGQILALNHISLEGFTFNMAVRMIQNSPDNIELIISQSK
DLG5_1, Q8TDM6, sequence (Q8TDM6 617-713): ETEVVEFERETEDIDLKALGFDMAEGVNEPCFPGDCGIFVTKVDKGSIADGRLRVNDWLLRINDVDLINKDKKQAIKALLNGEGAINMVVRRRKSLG
TJP1_2, Q07157, sequence (Q07157 181-274): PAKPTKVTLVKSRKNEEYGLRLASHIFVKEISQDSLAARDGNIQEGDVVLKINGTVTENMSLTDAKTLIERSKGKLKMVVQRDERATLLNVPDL
GIPC2, Q8TF65, sequence (Q8TF65 112-203): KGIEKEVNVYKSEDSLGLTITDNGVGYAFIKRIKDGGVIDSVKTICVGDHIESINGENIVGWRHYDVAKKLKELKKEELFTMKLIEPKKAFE

RFQQRMQTHV [KIRREL1, Q96J84]
pKd (ARHGEF11, O15085; [1]): 4.19
pKd (CASK, O14936; [1]): below the threshold
pKd (DFNB31_1, Q9P202; [1]): 3.52
pKd (DFNB31_2, Q9P202; [1]): below the threshold
pKd (DLG1_2, Q12959; [1]): 4.74
pKd (DLG5_1, Q8TDM6; [1]): below the threshold
pKd (FRMPD2_1, Q68DX3; [1]): below the threshold
pKd (FRMPD3, Q5JV73; [1]): below the threshold
pKd (GIPC2, Q8TF65; [1]): below the threshold
pKd (GRIP1_3, Q9Y3R0; [1]): below the threshold
pKd (GRIP2_7, Q9C0E4; [1]): 3.52
pKd (Inadl_5, Q8NI35; [1]): 3.6
pKd (LIN7C, Q9NUP9; [1]): 3.69
pKd (LNX2_3, Q8N448; [1]): below the threshold
pKd (MAGI1_2, Q96QZ7; [1]): 5.41
pKd (MAGI2_2, Q86UL8; [1]): 5.49
pKd (MAGI2_4, Q86UL8; [1]): 3.76
pKd (MAST1, Q9Y2H9; [1]): 4.76
pKd (MPP2, Q14168; [1]): below the threshold
pKd (PARD3B_1, Q8TEW8; [1]): below the threshold
pKd (RADIL, Q96JH8; [1]): 3.9
pKd (SIPA1L2, Q9P2F8; [1]): below the threshold
pKd (SNTG2, Q9NY99; [1]): below the threshold
pKd (TJP1_2, Q07157; [1]): below the threshold
pKd (TJP2_1, Q9UDY2; [1]): 4.82
pKd (TJP3_3, O95049; [1]): below the threshold

LAHVKHKEQI [AQP3, Q92482]
pKd (ARHGEF11, O15085; [1]): below the threshold
pKd (CASK, O14936; [1]): below the threshold
pKd (DFNB31_1, Q9P202; [1]): below the threshold
pKd (DFNB31_2, Q9P202; [1]): below the threshold
pKd (DLG1_2, Q12959; [1]): below the threshold
pKd (DLG5_1, Q8TDM6; [1]): below the threshold
pKd (FRMPD2_1, Q68DX3; [1]): below the threshold
pKd (FRMPD3, Q5JV73; [1]): below the threshold
pKd (GIPC2, Q8TF65; [1]): below the threshold
pKd (GRIP1_3, Q9Y3R0; [1]): below the threshold
pKd (GRIP2_7, Q9C0E4; [1]): below the threshold
pKd (Inadl_5, Q8NI35; [1]): below the threshold
pKd (LIN7C, Q9NUP9; [1]): below the threshold
pKd (LNX2_3, Q8N448; [1]): below the threshold
pKd (MAGI1_2, Q96QZ7; [1]): below the threshold
pKd (MAGI2_2, Q86UL8; [1]): below the threshold
pKd (MAGI2_4, Q86UL8; [1]): below the threshold
pKd (MAST1, Q9Y2H9; [1]): below the threshold
pKd (MPP2, Q14168; [1]): below the threshold
pKd (PARD3B_1, Q8TEW8; [1]): below the threshold
pKd (RADIL, Q96JH8; [1]): below the threshold
pKd (SIPA1L2, Q9P2F8; [1]): below the threshold
pKd (SNTG2, Q9NY99; [1]): below the threshold
pKd (TJP1_2, Q07157; [1]): below the threshold
pKd (TJP2_1, Q9UDY2; [1]): below the threshold
pKd (TJP3_3, O95049; [1]): below the threshold

EDPRVEVTQF [SLC22A9, Q8IVM8]
pKd (ARHGEF11, O15085; [1]): below the threshold
pKd (CASK, O14936; [1]): below the threshold
pKd (DFNB31_1, Q9P202; [1]): below the threshold
pKd (DFNB31_2, Q9P202; [1]): below the threshold
pKd (DLG1_2, Q12959; [1]): below the threshold
pKd (DLG5_1, Q8TDM6; [1]): below the threshold
pKd (FRMPD2_1, Q68DX3; [1]): below the threshold
pKd (FRMPD3, Q5JV73; [1]): below the threshold
pKd (GIPC2, Q8TF65; [1]): below the threshold
pKd (GRIP1_3, Q9Y3R0; [1]): below the threshold
pKd (GRIP2_7, Q9C0E4; [1]): below the threshold
pKd (Inadl_5, Q8NI35; [1]): below the threshold
pKd (LIN7C, Q9NUP9; [1]): below the threshold
pKd (LNX2_3, Q8N448; [1]): below the threshold
pKd (MAGI1_2, Q96QZ7; [1]): below the threshold
pKd (MAGI2_2, Q86UL8; [1]): below the threshold
pKd (MAGI2_4, Q86UL8; [1]): below the threshold
pKd (MAST1, Q9Y2H9; [1]): 4.75
pKd (MPP2, Q14168; [1]): below the threshold
pKd (PARD3B_1, Q8TEW8; [1]): 4.26
pKd (RADIL, Q96JH8; [1]): below the threshold
pKd (SIPA1L2, Q9P2F8; [1]): below the threshold
pKd (SNTG2, Q9NY99; [1]): below the threshold
pKd (TJP1_2, Q07157; [1]): below the threshold
pKd (TJP2_1, Q9UDY2; [1]): below the threshold
pKd (TJP3_3, O95049; [1]): below the threshold

APIAGFSSFV [SDK2, Q58EX2]
pKd (ARHGEF11, O15085; [1]): 3.72
pKd (CASK, O14936; [1]): below the threshold
pKd (DFNB31_1, Q9P202; [1]): 3.79
pKd (DFNB31_2, Q9P202; [1]): 3.52
pKd (DLG1_2, Q12959; [1]): 4.45
pKd (DLG5_1, Q8TDM6; [1]): below the threshold
pKd (FRMPD2_1, Q68DX3; [1]): below the threshold
pKd (FRMPD3, Q5JV73; [1]): below the threshold
pKd (GIPC2, Q8TF65; [1]): below the threshold
pKd (GRIP1_3, Q9Y3R0; [1]): below the threshold
pKd (GRIP2_7, Q9C0E4; [1]): below the threshold
pKd (Inadl_5, Q8NI35; [1]): 3.82
pKd (LIN7C, Q9NUP9; [1]): below the threshold
pKd (LNX2_3, Q8N448; [1]): below the threshold
pKd (MAGI1_2, Q96QZ7; [1]): below the threshold
pKd (MAGI2_2, Q86UL8; [1]): 3.5
pKd (MAGI2_4, Q86UL8; [1]): 3.94
pKd (MAST1, Q9Y2H9; [1]): below the threshold
pKd (MPP2, Q14168; [1]): below the threshold
pKd (PARD3B_1, Q8TEW8; [1]): 3.75
pKd (RADIL, Q96JH8; [1]): 5.17
pKd (SIPA1L2, Q9P2F8; [1]): below the threshold
pKd (SNTG2, Q9NY99; [1]): below the threshold
pKd (TJP1_2, Q07157; [1]): below the threshold
pKd (TJP2_1, Q9UDY2; [1]): 4.19
pKd (TJP3_3, O95049; [1]): 3.82

QQSMSSADSTQA [SARS-Cov2-N, P0DTC9]
pKd (ARHGEF11, O15085; [2]): below the threshold
pKd (CASK, O14936; [2]): below the threshold
pKd (DFNB31_1, Q9P202; [2]): below the threshold
pKd (DFNB31_2, Q9P202; [2]): below the threshold
pKd (DLG1_2, Q12959; [2]): below the threshold
pKd (DLG5_1, Q8TDM6; [2]): below the threshold
pKd (FRMPD2_1, Q68DX3; [2]): below the threshold
pKd (FRMPD3, Q5JV73; [2]): below the threshold
pKd (GIPC2, Q8TF65; [2]): below the threshold
pKd (GRIP1_3, Q9Y3R0; [2]): below the threshold
pKd (GRIP2_7, Q9C0E4; [2]): below the threshold
pKd (Inadl_5, Q8NI35; [2]): below the threshold
pKd (LIN7C, Q9NUP9; [2]): below the threshold
pKd (LNX2_3, Q8N448; [2]): 3.88
pKd (MAGI1_2, Q96QZ7; [2]): below the threshold
pKd (MAGI2_2, Q86UL8; [2]): below the threshold
pKd (MAGI2_4, Q86UL8; [2]): below the threshold
pKd (MAST1, Q9Y2H9; [2]): below the threshold
pKd (MPP2, Q14168; [2]): below the threshold
pKd (PARD3B_1, Q8TEW8; [2]): below the threshold
pKd (RADIL, Q96JH8; [2]): below the threshold
pKd (SIPA1L2, Q9P2F8; [2]): below the threshold
pKd (SNTG2, Q9NY99; [2]): below the threshold
pKd (TJP1_2, Q07157; [2]): below the threshold
pKd (TJP2_1, Q9UDY2; [2]): below the threshold
pKd (TJP3_3, O95049; [2]): below the threshold
